Target: 5T4 antigen on the cell surface (A431 cells and 5T4 over-expressing recombinant MDA-MB-231 cells) (human) (UniProt Q13641)
Test: flow cytometry (MFI) on 5T4-expressing cells, anti-Fc FITC detection

Sequence of 5T4 antigen on the cell surface (A431 cells and 5T4 over-expressing recombinant MDA-MB-231 cells) (human) (Q13641 32-420): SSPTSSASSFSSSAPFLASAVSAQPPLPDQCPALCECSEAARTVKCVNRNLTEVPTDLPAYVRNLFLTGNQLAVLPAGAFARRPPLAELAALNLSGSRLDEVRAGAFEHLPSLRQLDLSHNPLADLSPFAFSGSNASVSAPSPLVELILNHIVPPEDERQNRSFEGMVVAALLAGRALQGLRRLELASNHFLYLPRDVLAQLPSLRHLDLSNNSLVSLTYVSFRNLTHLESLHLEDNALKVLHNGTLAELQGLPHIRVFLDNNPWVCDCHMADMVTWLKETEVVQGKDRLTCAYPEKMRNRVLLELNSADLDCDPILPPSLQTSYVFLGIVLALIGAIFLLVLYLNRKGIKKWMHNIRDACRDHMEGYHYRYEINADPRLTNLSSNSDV

Substance: non-binding scFvFc fusion protein
- fold less binding than the anti-5T4 scFvFc molecules: 200 fold less

Reference: US11434278
